Test: Oxygen dissociation rates of DevS proteins, stopped flow
Type: binding, Mycobacterium tuberculosis

B1: DevS: full length wild-type heme sensor kinase DevS of Mycobacterium tuberculosis (protein, UniProt P9WGK3 1-578, looked up)
chain: MTTGGLVDENDGAAMRPLRHTLSQLRLHELLVEVQDRVEQIVEGRDRLDGLVEAMLVVTAGLDLEATLRAIVHSATSLVDARYGAMEVHDRQHRVLHFVYEGIDEETVRRIGHLPKGLGVIGLLIEDPKPLRLDDVSAHPASIGFPPYHPPMRTFLGVPVRVRDESFGTLYLTDKTNGQPFSDDDEVLVQALAAAAGIAVANARLYQQAKARQSWIEATRDIATELLSGTEPATVFRLVAAEALKLTAADAALVAVPVDEDMPAADVGELLVIETVGSAVASIVGRTIPVAGAVLREVFVNGIPRRVDRVDLEGLDELADAGPALLLPLRARGTVAGVVVVLSQGGPGAFTDEQLEMMAAFADQAALAWQLATSQRRMRELDVLTDRDRIARDLHDHVIQRLFAIGLALQGAVPHERNPEVQQRLSDVVDDLQDVIQEIRTTIYDLHGASQGITRLRQRIDAAVAQFADSGLRTSVQFVGPLSVVDSALADQAEAVVREAVSNAVRHAKASTLTVRVKVDDDLCIEVTDNGRGLPDEFTGSGLTNLRQRAEQAGGEFTLASVPGASGTVLRWSAPLSQ
modifications: full-length
With B1 the O2 koff was 6.79 ± 0.33 ^b s^−1.

— paper PMC2756985 (Biochemistry, 2009)
